From patent publication US20180057581A1 (MorphoSys, published 2018)

Assays:
Experiment in all cases: MSD specificity profiling, coated protein, Camille at 100 nM
Pepsinogen (pork) = Pepsinogen (pork) (pork, UniProt P00791 16-385)
Experimental: (§1) For this specificity profiling test the different proteins and controls were coated on two 384-well MSD plates with a concentration of 1 μg/ml at 4° C. over night. Plates were blocked with BSA and washed three times with PBS with 0.05% (v/v) Tween 20. Antibody samples were diluted to 100 nM and 10 nM in assay buffer (PBS with 0.5% (w/v) BSA, 0.05% (v/v) Tween 20). […] Samples and controls were incubated for three hours at room temperature. The plates were washed three times and 30 μl detection antibody (ECL-labeled anti-human Fab) were added per well and incubated for 1 h. After washing, MSD Read Buffer T with surfactant was added and electrochemiluminescence signals were detected using a Sector Imager 6000 (Meso Scale Discovery, Gaithersburg, Md., USA).

[1] = biological target: Cell surface receptor 1 (human) (human)
Experimental: as §1

Lysozyme (chicken) = Lysozyme (chicken) (chicken, UniProt P00698 19-147)
Experimental: as §1

RNase B (cow) = biological target: T1, RNase B (cow) (cow, UniProt P61823 27-150)
T1 sequence (looked up): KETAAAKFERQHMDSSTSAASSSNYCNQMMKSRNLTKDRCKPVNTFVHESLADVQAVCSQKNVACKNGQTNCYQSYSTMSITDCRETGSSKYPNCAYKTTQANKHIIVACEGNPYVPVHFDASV
Experimental: as §1

[2] = biological target: Trypsin inhibitor (Soybean) (Soybean)
Experimental: as §1

Myoglobin (horse) = Myoglobin (horse) (horse, UniProt P68082 2-154)
Experimental: as §1

[3] = biological target: Aminogylcosidase (Aspergillus niger) (Aspergillus niger)
Experimental: as §1

Lectin (Lens culinaris) = biological target: T2, Lectin (Lens culinaris) (Lens culinaris, UniProt P02870 31-210; P02870 218-269, limits assumed)
T2 sequence (looked up) 1: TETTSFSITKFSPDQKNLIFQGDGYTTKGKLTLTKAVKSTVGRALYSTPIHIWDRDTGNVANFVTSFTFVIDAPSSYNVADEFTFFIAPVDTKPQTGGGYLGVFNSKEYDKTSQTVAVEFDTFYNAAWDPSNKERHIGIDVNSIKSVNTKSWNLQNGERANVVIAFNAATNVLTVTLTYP
T2 sequence (looked up) 2: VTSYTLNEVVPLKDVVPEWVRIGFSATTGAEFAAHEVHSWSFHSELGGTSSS
Experimental: as §1

[4] = biological target: Anti-human Fab (Dianova, # 109-005-097)
Experimental: as §1

Fibrinogen (bovine) = biological target: T3, Fibrinogen (bovine) (bovine, UniProt P02672 20-615; P02676 1-468; P12799 25-444)
T3 sequence (looked up) 1: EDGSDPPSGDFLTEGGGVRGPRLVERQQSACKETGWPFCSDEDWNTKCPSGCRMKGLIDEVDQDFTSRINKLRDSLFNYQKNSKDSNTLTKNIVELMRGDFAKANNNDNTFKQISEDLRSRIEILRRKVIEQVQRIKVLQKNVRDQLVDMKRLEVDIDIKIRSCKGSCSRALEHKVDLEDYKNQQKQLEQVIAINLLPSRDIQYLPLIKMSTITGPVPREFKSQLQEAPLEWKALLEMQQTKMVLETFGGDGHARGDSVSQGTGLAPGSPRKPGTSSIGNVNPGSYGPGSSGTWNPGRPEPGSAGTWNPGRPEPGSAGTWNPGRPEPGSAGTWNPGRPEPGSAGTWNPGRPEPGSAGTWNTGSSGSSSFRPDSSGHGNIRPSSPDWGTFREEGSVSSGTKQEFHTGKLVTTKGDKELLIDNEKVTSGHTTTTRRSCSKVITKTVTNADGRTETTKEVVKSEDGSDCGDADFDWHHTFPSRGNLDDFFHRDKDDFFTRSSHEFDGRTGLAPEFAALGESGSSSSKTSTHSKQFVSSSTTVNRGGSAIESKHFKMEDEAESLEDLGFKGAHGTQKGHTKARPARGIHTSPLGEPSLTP
T3 sequence (looked up) 2: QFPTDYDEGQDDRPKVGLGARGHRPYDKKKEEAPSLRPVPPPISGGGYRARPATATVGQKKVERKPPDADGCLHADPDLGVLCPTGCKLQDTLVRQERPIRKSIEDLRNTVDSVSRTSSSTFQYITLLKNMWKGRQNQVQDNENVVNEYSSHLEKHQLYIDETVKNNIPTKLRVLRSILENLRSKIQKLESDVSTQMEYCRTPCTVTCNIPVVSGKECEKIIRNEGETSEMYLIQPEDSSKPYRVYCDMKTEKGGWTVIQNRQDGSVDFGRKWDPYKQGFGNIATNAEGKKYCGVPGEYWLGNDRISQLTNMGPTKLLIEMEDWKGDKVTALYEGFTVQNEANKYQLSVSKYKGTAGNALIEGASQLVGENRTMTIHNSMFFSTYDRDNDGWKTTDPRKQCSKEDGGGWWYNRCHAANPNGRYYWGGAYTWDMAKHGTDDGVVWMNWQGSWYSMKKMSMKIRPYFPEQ
T3 sequence (looked up) 3: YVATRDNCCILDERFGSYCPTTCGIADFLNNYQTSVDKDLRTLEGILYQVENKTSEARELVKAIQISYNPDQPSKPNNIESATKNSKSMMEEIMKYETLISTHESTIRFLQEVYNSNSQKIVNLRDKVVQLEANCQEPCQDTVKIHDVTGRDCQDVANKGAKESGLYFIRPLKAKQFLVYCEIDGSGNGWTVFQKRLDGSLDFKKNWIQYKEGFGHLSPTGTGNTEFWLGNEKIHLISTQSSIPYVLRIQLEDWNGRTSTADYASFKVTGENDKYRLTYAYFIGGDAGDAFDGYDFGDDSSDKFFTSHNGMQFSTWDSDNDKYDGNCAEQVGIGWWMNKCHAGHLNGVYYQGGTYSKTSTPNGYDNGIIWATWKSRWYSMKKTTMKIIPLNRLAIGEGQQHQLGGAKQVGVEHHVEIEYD
Experimental: as §1

Cytochrome c (cow) = Cytochrome c (cow) (cow, UniProt P62894 2-105)
Experimental: as §1

[5] = biological target: Anti-human Fc (Dianova, #109-005-098)
Experimental: as §1

Measured: signal normalized to reference antibody MOR03207

Myoglobin (horse), sequence (P68082 2-154 limits assumed): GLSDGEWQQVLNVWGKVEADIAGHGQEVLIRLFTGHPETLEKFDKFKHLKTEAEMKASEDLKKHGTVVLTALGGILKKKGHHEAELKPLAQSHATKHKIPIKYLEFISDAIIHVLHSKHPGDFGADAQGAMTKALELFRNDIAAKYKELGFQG
Aminogylcosidase (Aspergillus niger) (Aspergillus niger), sequence (P69328 25-640): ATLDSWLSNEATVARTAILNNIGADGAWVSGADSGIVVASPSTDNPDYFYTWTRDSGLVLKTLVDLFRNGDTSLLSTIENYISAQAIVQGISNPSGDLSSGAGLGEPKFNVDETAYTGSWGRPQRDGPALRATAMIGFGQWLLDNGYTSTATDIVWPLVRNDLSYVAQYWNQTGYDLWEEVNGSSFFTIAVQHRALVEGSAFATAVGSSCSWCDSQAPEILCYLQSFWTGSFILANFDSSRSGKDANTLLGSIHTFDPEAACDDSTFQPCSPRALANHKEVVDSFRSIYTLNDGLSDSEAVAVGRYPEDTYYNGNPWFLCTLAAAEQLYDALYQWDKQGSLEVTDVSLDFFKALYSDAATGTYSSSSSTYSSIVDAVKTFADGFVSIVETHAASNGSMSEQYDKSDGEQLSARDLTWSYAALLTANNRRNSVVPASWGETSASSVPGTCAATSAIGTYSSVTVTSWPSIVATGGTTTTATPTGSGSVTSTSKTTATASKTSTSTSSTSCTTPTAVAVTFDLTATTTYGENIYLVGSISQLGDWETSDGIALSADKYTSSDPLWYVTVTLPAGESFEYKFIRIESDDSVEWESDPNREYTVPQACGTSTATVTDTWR
Lysozyme (chicken), sequence (P00698 19-147): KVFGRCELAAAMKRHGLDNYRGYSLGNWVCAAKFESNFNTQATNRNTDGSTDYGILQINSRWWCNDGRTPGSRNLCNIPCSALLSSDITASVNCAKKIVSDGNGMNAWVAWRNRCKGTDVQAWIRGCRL
Trypsin inhibitor (Soybean) (Soybean), sequence (P01070 25-205): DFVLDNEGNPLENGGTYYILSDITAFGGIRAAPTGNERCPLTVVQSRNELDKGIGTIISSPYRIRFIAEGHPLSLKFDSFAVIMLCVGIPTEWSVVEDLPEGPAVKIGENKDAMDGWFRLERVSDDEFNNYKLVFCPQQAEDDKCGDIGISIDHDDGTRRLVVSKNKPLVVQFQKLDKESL
Pepsinogen (pork), sequence (P00791 16-385): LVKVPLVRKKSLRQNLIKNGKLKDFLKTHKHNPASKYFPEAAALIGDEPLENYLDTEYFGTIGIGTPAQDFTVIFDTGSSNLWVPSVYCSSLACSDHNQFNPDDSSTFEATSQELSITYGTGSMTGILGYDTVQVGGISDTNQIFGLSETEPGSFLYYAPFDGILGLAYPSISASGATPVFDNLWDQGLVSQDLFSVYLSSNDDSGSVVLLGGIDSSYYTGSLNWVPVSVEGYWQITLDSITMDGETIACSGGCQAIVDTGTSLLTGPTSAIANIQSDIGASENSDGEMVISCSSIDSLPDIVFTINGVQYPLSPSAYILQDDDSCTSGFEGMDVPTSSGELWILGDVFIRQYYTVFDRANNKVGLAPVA
Cytochrome c (cow), sequence (P62894 2-105 limits assumed): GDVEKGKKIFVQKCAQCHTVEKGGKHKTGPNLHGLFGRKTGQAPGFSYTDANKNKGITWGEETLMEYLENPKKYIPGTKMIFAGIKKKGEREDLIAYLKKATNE

B1: Camille (format not stated) (antibody, V domains shown)
VH: QVQLQQSGPGLVKPSQTLSLTCAISGESVSTSSAAWNWIRQSPSRGLEWLGRTYYRSKWKHEYAVSVKSRITINPDTSKNQFSLQLNSVTPEDTAVYYCARDRYYYSAFDYWGQGTLVTVSS
VL: QSALTQPASVSGSPGQSITISCTGTSSDVGGYNSVSWYQQHPGKAPKLLIYAVSNRPSGVSNRFSGSKSGNTASLTISGLQAEDEADYYCASYDERFTRVFGGGTKLTVLG
notes: also called Antibody Camille
0 ratio: Lysozyme (chicken)
1 ratio: Pepsinogen (pork) | [1] | RNase B (cow) | [2] | Myoglobin (horse) | [3] | Lectin (Lens culinaris) | [4] | Fibrinogen (bovine) | Cytochrome c (cow) | [5]
